Experimental data from PMC2908543, “Uropathogenic Escherichia coli Modulates Immune Responses and Its Curli Fimbriae Interact with the Antimicrobial Peptide LL-37” (PLoS Pathogens, 2010).

What was measured:
[1] = molecular target: recombinant CsgA-His6 (E. coli) (UniProt P28307)
[2] = molecular target: recombinant CsgA-His6 (E. coli) (UniProt P28307); assay: thioflavin T fluorescence quantified by confocal microscopy; monomeric CsgA with equimolar LL-37, sLL-37 or VIP and 20 µM ThT, over night at 37°C, washed; fluorescence relative to CsgA alone

human antimicrobial peptide LL-37
curli-mediated biofilm formation of E. coli in microtiter plates (crystal violet), reduction by 2.5 µM LL-37; the pair blocked is CsgA with CsgA (polymerization) [1]: > 80% | ThT fluorescence of CsgA with the peptide at 1:1, relative to CsgA alone (1 arbitrary unit) (arbitrary units) [2]: 0.05
